Data on one substance can be found in publication PMC3660092.

The target in this assay is YFP-IP3R type 1 (UniProt P11881). Put plainly: FRET or BRET. Background: In BRET a luciferase serves as donor, and the signal depends on an acceptor being close.
UniProt P11881, sequence (P11881 whole entry): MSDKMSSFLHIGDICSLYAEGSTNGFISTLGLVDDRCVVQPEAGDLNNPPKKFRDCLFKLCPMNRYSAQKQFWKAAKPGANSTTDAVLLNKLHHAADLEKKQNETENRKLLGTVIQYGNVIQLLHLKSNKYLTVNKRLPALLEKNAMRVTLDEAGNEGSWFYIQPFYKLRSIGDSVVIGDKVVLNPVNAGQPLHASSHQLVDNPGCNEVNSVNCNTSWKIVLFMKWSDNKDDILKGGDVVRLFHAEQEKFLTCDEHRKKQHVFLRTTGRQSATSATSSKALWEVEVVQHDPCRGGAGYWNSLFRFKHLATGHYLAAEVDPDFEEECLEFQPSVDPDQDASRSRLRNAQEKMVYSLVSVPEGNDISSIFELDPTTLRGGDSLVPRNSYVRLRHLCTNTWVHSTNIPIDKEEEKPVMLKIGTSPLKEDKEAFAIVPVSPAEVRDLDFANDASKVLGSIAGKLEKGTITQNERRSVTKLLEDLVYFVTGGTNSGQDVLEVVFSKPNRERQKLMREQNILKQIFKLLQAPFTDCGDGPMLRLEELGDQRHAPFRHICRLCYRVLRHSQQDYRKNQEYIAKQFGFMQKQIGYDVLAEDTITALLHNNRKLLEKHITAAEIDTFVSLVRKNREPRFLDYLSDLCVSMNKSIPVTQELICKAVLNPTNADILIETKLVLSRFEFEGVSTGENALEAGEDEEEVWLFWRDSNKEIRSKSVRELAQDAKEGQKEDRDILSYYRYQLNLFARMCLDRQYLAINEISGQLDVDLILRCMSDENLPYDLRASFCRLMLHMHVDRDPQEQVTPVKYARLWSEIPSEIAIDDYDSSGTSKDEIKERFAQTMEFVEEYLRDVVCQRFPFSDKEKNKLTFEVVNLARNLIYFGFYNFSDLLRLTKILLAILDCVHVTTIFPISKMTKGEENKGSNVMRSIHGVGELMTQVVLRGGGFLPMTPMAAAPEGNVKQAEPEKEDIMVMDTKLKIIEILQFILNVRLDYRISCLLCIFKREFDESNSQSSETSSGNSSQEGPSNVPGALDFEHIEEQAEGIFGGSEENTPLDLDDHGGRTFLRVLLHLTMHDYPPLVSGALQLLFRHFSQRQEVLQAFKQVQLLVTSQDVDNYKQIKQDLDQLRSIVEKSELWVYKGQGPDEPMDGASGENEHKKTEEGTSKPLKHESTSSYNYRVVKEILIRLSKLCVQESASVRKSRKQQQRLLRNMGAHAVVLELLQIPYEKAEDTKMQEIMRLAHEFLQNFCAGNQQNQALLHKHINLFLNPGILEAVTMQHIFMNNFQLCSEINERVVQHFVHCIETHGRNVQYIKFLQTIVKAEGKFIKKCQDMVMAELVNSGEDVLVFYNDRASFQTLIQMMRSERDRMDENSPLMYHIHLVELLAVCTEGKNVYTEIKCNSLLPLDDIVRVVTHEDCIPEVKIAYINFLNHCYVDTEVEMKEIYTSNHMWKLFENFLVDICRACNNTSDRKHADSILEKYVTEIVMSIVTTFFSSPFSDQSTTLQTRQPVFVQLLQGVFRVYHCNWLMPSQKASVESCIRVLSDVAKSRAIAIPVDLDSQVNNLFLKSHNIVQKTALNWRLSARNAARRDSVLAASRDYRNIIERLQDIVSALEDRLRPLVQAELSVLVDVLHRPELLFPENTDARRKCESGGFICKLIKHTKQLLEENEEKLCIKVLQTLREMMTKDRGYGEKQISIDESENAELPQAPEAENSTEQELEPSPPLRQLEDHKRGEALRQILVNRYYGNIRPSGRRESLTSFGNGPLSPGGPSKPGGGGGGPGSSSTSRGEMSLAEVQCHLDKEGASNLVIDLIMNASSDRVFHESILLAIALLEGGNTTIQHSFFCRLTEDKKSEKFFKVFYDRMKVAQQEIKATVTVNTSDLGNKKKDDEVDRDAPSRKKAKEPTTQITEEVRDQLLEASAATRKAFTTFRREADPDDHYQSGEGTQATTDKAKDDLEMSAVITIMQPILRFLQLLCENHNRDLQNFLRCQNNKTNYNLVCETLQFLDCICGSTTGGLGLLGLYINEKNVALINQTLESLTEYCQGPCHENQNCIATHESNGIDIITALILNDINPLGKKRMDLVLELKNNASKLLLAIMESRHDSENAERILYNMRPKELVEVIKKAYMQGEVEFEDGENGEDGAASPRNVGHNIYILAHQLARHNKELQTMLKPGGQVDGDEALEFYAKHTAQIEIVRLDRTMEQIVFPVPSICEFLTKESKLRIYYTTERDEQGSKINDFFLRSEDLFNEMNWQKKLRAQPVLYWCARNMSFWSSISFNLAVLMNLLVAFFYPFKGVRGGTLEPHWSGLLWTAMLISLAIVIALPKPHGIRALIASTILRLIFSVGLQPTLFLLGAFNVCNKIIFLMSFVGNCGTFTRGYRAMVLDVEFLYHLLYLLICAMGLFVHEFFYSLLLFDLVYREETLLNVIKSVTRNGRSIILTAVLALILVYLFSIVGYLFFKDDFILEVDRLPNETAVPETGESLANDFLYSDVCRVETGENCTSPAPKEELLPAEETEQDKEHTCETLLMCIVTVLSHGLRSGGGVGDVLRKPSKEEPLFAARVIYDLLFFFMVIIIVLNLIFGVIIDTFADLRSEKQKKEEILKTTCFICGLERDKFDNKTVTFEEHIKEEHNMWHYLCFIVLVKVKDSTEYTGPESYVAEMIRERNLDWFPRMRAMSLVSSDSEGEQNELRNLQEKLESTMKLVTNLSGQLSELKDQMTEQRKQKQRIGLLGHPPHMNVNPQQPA

Regarding “CFP-Bcl-2 (from UniProt P10415 1-239) (natural protein)”, the increase of the CFP signal after YFP bleaching (FRET efficiency) came out at 28%.
